US20200249244A1 (PROTHENA BIOSCIENCES, published 2020)
Where “and” joins values, the source holds several entries; their conditions need not be identical. Equal values may be shown once. Each block holds one binder with its values, some of them ahead of it.

How the values were obtained:
[1] = biological target: misfolded TTR in plasma of ATTR patients (human, UniProt P02766 21-147); assay: MSD ECL competition: m14G8 spiked into plasma of 12 h-ATTR patients, free mis-TTR captured by biotinylated 9D5 (competitor), Dako polyclonal reporter
[2] = biological target: T1, recombinant human TTR, denatured (misfolded) (human, UniProt P02766 21-147); assay: SPR Biacore T200, antibody captured by anti-mouse antibody, Gu-hTTR as analyte, 1:1 fit
Method: (§1) Anti-Mouse antibody was immobilized on sensor chip CM3 (GE Healthcare Life Sciences) via amine coupling, and murine antibodies (ligand) were captured to a level to ensure a maximum binding of analyte of 50 RU (approximately 250RU of ligand binding). Various concentrations of Gu-TTR (ranging from 0.4 nM to 100 nM) were passed over the captured ligand at 50 μL/min in running buffer (HBS+0.05% P-20, 1 mg/mL BSA, 50 mM Gu-HCl) for 300 s association time and 900 s dissociation time. Regeneration of the chip surface was accomplished by 2 short injections of 10 mM Glycine-HCl at pH 1.7. Concentrations of Gu-cTTR used ranged from 1-1000 nM, while concentrations of Human TTR tetramer ranged from 10 nM to 10,000 nM. Data was blank subtracted to both a sensor not containing ligand and 0 nM analyte concentration. Analysis was performed using a global 1:1 fit with Biacore Evaluation software (v3.0) with bulk refractive index set to zero RU.

[3] = biological target: Cynomolgus TTR denatured in 6 M Guanidine Hydrochloride (Cynomolgus, UniProt Q8HXW1 21-147); assay: SPR Biacore T200, antibody captured by anti-mouse antibody, Gu-cTTR 1-1000 nM as analyte, 1:1 fit
Method: as §1

[4] = biological target: T1, recombinant human TTR, denatured …; assay: SPR Biacore T200, antibody captured by anti-mouse antibody, Gu-hTTR 0.4-100 nM as analyte, 1:1 fit
Method: (§2) Anti-Human antibody was immobilized on flow cells 1 and 2, Anti-Mouse antibody was immobilized on flow cells 3 and 4 on sensor chip CM3 (GE Healthcare Life Sciences) via amine coupling, chimeric and murine 18C5 antibodies (ligand) were captured to a level to ensure a maximum binding of analyte of 50 RU (approximately 250RU of ligand binding). Various concentrations of Gu-TTR (ranging from 0.4 nM to 100 nM) were passed over the captured ligand at 50 μL/min in running buffer (HBS+0.05% P-20, 1 mg/mL BSA, 50 mM Gu-HCl) for 300s association time and 900s dissociation time. Regeneration of the chip surface was accomplished by 2 short injections of 3M Magnesium Chloride or 2 short injections of 10 mM Glycine-HCl at pH 1.7. Data was blank subtracted to both a sensor not containing ligand and 0 nM analyte concentration. Analysis was performed using a global 1:1 fit with Biacore Evaluation software (v3.0) with bulk refractive index set to zero RU.

[5] = biological target: native tetrameric human TTR (human, UniProt P02766 21-147); assay: SPR Biacore T200, antibody captured by anti-mouse antibody, human TTR tetramer 10-10,000 nM as analyte, 1:1 fit
Method: as §1

[6] = biological target: T1, recombinant human TTR, denatured …; assay: SPR Biacore T200, antibody captured by anti-human antibody, Gu-hTTR 0.4-100 nM as analyte, 1:1 fit
Method: as §2

EC50 [1]: 343 nM and ~50 µg/mL
B1: Mouse 14G8 (antibody, V domains shown)
VH: EVKLVESGGGLVQPGGSLKLSCAASGFTFSSYTMSWVRQTPEKRLELVAEINNSGDTTYYPDTVKGRFTISRDNAKNTLYLQMSSLKSEDTAMYYCARHYYYGGGYGGWFFDVWGTGTTVTVSS
VL: DIVMTQAAPSVPVTPGESVSISCRSNKSLLHSNGNTYLYWFLQRPGQSPQLLIYRVSNLASGVPDRFSGSGSGTAFTLRISRVEAEDVGVYYCMQHLEYPLTFGAGTKLELKR

Kd [2]: 5.9 nM
koff [2]: 0.00062 s⁻¹
kon [2]: 110000 M⁻¹ s⁻¹
koff [3]: 0.00092 s⁻¹
kon [3]: 100000 M⁻¹ s⁻¹
Kd [4]: 2.2 nM
koff [4]: 0.00021 s⁻¹
kon [4]: 99000 M⁻¹ s⁻¹
koff [5]: 0.00022 s⁻¹
kon [5]: 2200 M⁻¹ s⁻¹
B2: mouse 18C5 antibody (antibody, V domains shown)
VH: EVKLLESGGGLVQPGGSLNLSCVASGFDFSRFWMSWARQAPGRGQEWIGEINPGSSTINYTPSLKDKFIISRDNAKNTLFLQMSKVRSEDSALYYCARLGYGNYGWALDYWGQGTSVTVSS
VL: DVLMTQTPLSLPVSLGDQASISCRSSQSIVDSNGNTYLEWYLQKPGQSPKLLIYKVSNRFSGVPDRFSGSGSGTDFTLKISRVEAEDLGIYYCFQGSHVPLTFGAGTKLELK
notes: Used unlabelled (Biacore, Western blot), biotinylated (capture) or SULFO-TAG labelled (reporter) in the MSD assays; also called murine 18C5; m18C5

Kd [6]: 1.8 nM
koff [6]: 0.00016 s⁻¹
kon [6]: 130000 M⁻¹ s⁻¹
B3: chimeric 18C5 antibody (antibody, human IgG1, kappa, V domains shown)
VH: EVKLLESGGGLVQPGGSLNLSCVASGFDFSRFWMSWARQAPGRGQEWIGEINPGSSTINYTPSLKDKFIISRDNAKNTLFLQMSKVRSEDSALYYCARLGYGNYGWALDYWGQGTSVTVSS
VL: DVLMTQTPLSLPVSLGDQASISCRSSQSIVDSNGNTYLEWYLQKPGQSPKLLIYKVSNRFSGVPDRFSGSGSGTDFTLKISRVEAEDLGIYYCFQGSHVPLTFGAGTKLELKR
notes: Mouse 18C5 variable regions on human IgG1/kappa constant regions, expressed in CHO cells
